According to paper PMC9482650, “Quantitative fragmentomics allow affinity mapping of interactomes” (Nature Communications, 2022):

T1: GRIP1_2, Q9Y3R0
T1 sequence (Q9Y3R0 145-248, limits assumed, looked up): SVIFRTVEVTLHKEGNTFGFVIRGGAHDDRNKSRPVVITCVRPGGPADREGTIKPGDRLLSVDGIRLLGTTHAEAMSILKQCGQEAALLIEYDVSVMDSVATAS

T2: RAPGEF6, Q8TEU7
T2 sequence (Q8TEU7 525-625, limits assumed, looked up): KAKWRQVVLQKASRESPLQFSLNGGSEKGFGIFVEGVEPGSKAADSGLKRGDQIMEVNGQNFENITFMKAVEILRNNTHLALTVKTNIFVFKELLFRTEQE

T3: ARHGEF11, O15085
T3 sequence (O15085 42-136, limits assumed, looked up): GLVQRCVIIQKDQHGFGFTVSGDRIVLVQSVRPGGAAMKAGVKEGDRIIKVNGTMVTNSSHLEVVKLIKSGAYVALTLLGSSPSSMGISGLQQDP

T4: DFNB31_2, Q9P202
T4 sequence (Q9P202 274-371, limits assumed, looked up): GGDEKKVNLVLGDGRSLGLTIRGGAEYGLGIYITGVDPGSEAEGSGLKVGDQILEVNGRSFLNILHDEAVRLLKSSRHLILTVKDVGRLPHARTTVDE

T5: GRIP1_7, Q9Y3R0
T5 sequence (Q9Y3R0 999-1096, limits assumed, looked up): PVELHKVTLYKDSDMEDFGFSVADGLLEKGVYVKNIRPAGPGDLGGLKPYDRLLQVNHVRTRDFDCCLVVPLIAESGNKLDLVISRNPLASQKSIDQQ

T6: MPP6, Q9NZW5
T6 sequence (Q9NZW5 125-219, limits assumed, looked up): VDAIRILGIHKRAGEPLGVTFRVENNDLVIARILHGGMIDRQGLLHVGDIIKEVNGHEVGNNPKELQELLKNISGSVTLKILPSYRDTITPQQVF

T7: PCLO, Q9Y6V0
T7 sequence (Q9Y6V0 4491-4600, limits assumed, looked up): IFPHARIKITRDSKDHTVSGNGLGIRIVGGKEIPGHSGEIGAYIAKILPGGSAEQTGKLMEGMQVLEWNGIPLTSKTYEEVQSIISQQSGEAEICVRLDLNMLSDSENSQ

T8: GRIP1_3, Q9Y3R0
T8 sequence (Q9Y3R0 247-346, limits assumed, looked up): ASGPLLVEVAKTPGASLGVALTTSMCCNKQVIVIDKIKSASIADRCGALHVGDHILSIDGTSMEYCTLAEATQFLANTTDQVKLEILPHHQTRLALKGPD

T9: GRIP1_5, Q9Y3R0
T9 sequence (Q9Y3R0 568-668, limits assumed, looked up): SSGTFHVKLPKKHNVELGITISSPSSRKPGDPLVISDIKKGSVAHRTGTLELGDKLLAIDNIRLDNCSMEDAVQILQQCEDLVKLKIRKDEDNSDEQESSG

T10: PDZD2_2, O15018
T10 sequence (O15018 329-429, limits assumed, looked up): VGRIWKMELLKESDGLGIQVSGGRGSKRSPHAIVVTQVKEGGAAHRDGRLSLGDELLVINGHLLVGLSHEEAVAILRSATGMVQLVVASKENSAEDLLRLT


What was measured:
Assay in all cases: holdup assay
Design in all cases: key: below the threshold = too weak to quantify, mostly under pKd 3.1 to 4
Conditions in all cases: plain residues with an end cap or a label only (N-terminal biotin on a linker: ado-ado)
[1] = target: GRIP2_7, Q9C0E4
[2] = target: MAGI2_5, Q86UL8
[3] = target: SNX27, Q96L92
[4] = target: Inadl_2, Q8NI35
[5] = target: T1, GRIP1_2, Q9Y3R0
[6] = target: Inadl_6, Q8NI35
[7] = target: T2, RAPGEF6, Q8TEU7
[8] = target: MAST2, Q6P0Q8
[9] = target: LIMK2, P53671
[10] = target: T3, ARHGEF11, O15085
[11] = target: AHNAK1, Q09666
[12] = target: GIPC2, Q8TF65
[13] = target: GRIP2_6, Q9C0E4
[14] = target: Inadl_8, Q8NI35
[15] = target: T4, DFNB31_2, Q9P202
[16] = target: T5, GRIP1_7, Q9Y3R0
[17] = target: MAGI1_2, Q96QZ7
[18] = target: T6, MPP6, Q9NZW5
[19] = target: GORASP1, Q9BQQ3
[20] = target: T7, PCLO, Q9Y6V0
[21] = target: Inadl_10, Q8NI35
[22] = target: Inadl_3, Q8NI35
[23] = target: T8, GRIP1_3, Q9Y3R0
[24] = target: T9, GRIP1_5, Q9Y3R0
[25] = target: TJP2_1, Q9UDY2
[26] = target: PDZRN4_1, Q6ZMN7
[27] = target: GRID2IP_2, A4D2P6
[28] = target: T10, PDZD2_2, O15018

Sequence of Inadl_8, Q8NI35 (Q8NI35 1425-1530): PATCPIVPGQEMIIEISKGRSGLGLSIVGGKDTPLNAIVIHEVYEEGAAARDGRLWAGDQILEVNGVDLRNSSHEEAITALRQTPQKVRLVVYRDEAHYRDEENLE
Sequence of GIPC2, Q8TF65 (Q8TF65 112-203): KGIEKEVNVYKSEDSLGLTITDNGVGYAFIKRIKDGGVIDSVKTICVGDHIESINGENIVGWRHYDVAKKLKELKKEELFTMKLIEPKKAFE
Sequence of GRID2IP_2, A4D2P6 (A4D2P6 272-370): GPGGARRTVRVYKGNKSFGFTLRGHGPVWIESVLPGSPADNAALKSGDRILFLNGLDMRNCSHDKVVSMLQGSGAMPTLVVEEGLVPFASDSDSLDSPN
Sequence of Inadl_10, Q8NI35 (Q8NI35 1673-1763): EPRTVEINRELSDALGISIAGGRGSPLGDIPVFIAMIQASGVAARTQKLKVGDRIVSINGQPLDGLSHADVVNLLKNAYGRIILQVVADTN
Sequence of TJP2_1, Q9UDY2 (Q9UDY2 24-128): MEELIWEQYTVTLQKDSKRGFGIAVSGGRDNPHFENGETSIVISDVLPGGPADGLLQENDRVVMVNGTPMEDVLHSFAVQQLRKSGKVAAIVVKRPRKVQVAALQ
Sequence of Inadl_3, Q8NI35 (Q8NI35 359-469): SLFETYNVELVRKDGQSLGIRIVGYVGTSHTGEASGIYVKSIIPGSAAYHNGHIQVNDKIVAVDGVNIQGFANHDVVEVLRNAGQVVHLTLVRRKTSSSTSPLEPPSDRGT
Sequence of LIMK2, P53671 (P53671 143-248): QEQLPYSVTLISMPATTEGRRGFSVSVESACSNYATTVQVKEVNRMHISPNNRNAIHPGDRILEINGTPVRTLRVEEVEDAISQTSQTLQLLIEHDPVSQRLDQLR
Sequence of MAGI1_2, Q96QZ7 (Q96QZ7 456-580): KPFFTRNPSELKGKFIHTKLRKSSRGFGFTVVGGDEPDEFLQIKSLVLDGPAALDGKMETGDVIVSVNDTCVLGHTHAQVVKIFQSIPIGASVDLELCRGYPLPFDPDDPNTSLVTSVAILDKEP
Sequence of Inadl_6, Q8NI35 (Q8NI35 1058-1167): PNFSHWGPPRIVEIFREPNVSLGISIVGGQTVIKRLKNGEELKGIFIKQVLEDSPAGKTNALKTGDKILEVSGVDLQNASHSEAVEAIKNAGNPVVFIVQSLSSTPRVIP
Sequence of AHNAK1, Q09666 (Q09666 4-100): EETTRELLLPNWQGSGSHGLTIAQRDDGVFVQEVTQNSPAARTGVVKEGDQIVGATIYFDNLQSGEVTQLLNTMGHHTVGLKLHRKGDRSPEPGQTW
Sequence of GRIP2_7, Q9C0E4 (Q9C0E4 934-1023): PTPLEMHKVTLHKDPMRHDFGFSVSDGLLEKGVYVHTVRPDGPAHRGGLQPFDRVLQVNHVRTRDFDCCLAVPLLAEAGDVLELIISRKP
Sequence of PDZRN4_1, Q6ZMN7 (Q6ZMN7 213-318): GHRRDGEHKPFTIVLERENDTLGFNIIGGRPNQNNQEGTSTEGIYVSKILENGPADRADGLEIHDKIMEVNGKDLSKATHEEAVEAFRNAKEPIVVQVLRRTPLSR
Sequence of MAGI2_5, Q86UL8 (Q86UL8 915-1017): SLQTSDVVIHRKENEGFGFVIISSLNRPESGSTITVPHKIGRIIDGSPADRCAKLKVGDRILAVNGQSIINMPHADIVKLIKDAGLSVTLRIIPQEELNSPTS
Sequence of GRIP2_6, Q9C0E4 (Q9C0E4 648-740): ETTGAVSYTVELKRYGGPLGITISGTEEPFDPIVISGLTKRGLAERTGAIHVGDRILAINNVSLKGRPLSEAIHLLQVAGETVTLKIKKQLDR
Sequence of GORASP1, Q9BQQ3 (Q9BQQ3 1-208): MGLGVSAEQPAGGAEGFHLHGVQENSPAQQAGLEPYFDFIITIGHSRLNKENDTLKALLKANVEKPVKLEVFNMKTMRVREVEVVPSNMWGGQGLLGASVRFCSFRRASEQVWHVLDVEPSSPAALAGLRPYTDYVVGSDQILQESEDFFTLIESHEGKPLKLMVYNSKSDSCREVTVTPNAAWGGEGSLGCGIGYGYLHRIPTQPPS
Sequence of MAST2, Q6P0Q8 (Q6P0Q8 1099-1202): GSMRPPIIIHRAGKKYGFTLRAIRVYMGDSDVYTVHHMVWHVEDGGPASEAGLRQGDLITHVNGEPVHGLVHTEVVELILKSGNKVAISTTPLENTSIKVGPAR
Sequence of Inadl_2, Q8NI35 (Q8NI35 238-335): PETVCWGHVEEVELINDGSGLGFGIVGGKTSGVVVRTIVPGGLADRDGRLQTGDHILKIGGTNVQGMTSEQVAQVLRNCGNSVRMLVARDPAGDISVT

Binder	pKd [1]	pKd [2]	pKd [3]	pKd [4]	pKd [5]	pKd [6]	pKd [7]	pKd [8]	pKd [9]	pKd [10]	pKd [11]	pKd [12]	pKd [13]	pKd [14]	pKd [15]	pKd [16]	pKd [17]	pKd [18]	pKd [19]	pKd [20]	further results
LSEFKAMDSF [CTNNA2, P26232]	below the threshold	below the threshold	below the threshold	below the threshold	below the threshold	below the threshold	below the threshold	below the threshold	below the threshold	below the threshold	below the threshold	below the threshold	below the threshold	below the threshold	below the threshold	below the threshold	below the threshold	below the threshold	below the threshold	below the threshold	pKd [21]: below the threshold; pKd [22]: below the threshold; pKd [23]: below the threshold; pKd [24]: below the threshold; pKd [25]: below the threshold; pKd [26]: below the threshold; pKd [27]: below the threshold; pKd [28]: below the threshold
PLDSQQHTEV [FAT1, Q14517]	below the threshold	4.54	4.7	below the threshold	below the threshold	below the threshold	below the threshold	5.21	below the threshold	4.67	below the threshold	3.89	below the threshold	below the threshold	below the threshold	below the threshold	below the threshold	below the threshold	below the threshold	below the threshold	pKd [21]: below the threshold; pKd [22]: below the threshold; pKd [23]: below the threshold; pKd [24]: below the threshold; pKd [25]: below the threshold; pKd [26]: 3.81; pKd [27]: 3.84; pKd [28]: 4.79
RQSILFSTEV [BCR, P11274]	3.66	5.17	4.89	below the threshold	below the threshold	3.93	below the threshold	5.4	below the threshold	5.19	below the threshold	3.56	4.47	4.49	below the threshold	below the threshold	3.91	below the threshold	below the threshold	below the threshold	pKd [21]: 4.32; pKd [22]: 4.66; pKd [23]: below the threshold; pKd [24]: below the threshold; pKd [25]: 3.69; pKd [26]: 3.78; pKd [27]: 4.3; pKd [28]: 4.76

Second part, led by results:

pKd [1]	pKd [2]	pKd [3]	pKd [4]	pKd [5]	pKd [6]	pKd [7]	pKd [8]	pKd [9]	pKd [10]	pKd [11]	pKd [12]	pKd [13]	pKd [14]	pKd [15]	pKd [16]	pKd [17]	pKd [18]	pKd [19]	pKd [20]	Binder	further results
below the threshold	4.02	5.43	below the threshold	below the threshold	3.57	below the threshold	5.21	below the threshold	3.94	below the threshold	below the threshold	below the threshold	below the threshold	3.5	below the threshold	below the threshold	below the threshold	below the threshold	below the threshold	PELESKESVL [SLC1A4, P43007]	pKd [21]: below the threshold; pKd [22]: below the threshold; pKd [23]: below the threshold; pKd [24]: below the threshold; pKd [25]: below the threshold; pKd [26]: 4.66; pKd [27]: 3.91; pKd [28]: 4.16
below the threshold	below the threshold	3.61	below the threshold	below the threshold	below the threshold	below the threshold	3.7	below the threshold	3.56	below the threshold	3.55	below the threshold	below the threshold	below the threshold	below the threshold	below the threshold	below the threshold	below the threshold	below the threshold	EEDTAEKDEL [HSPA5, P11021]	pKd [21]: below the threshold; pKd [22]: below the threshold; pKd [23]: below the threshold; pKd [24]: below the threshold; pKd [25]: below the threshold; pKd [26]: below the threshold; pKd [27]: below the threshold; pKd [28]: 3.53
